Starred links: 1 amine or outer side, 2 acyl side, 3 side chain; linkers in the order of their positions; H or OH if unused. Non-standard residues stand in square brackets, D forms with d. No end group written: not given here. *: point of attachment. NMe2F‑APPA = N-methyl-2-amino-5-(2-fluorophenyl)pentanoic acid, CN([C@@H](CCCc1ccccc1F)C(=O)[*:2])[*:1]; AMCB = 2-amino-5-(4-chloro-2-methylphenyl)pentanoic acid, Cc1cc(Cl)ccc1CCC[C@H](N[*:1])C(=O)[*:2]; 2CF3,4F‑APPA = 2-amino-5-(4-fluoro-2-(trifluoromethyl)phenyl)pentanoic acid; 2F,4CF3‑APPA = 2-amino-5-(2-fluoro-4-(trifluoromethyl)phenyl)pentanoic acid; Bip(2'-Et-4'-OMe) = CCc1cc(OC)ccc1-c1ccc(C[C@H](N)C(=O)O)cc1; Leu(5,5,5,5',5',5'-F6) = N[C@@H](CC(C(F)(F)F)C(F)(F)F)C(=O)O; 2Cl‑APPA = 2-amino-5-(2-chlorophenyl)pentanoic acid; 2F‑APPA = 2-amino-5-(2-fluorophenyl)pentanoic acid; αMePhe(2-F) = C[C@](N)(Cc1ccccc1F)C(=O)O; NMeBip(OMe) = N-methylated Bip(OMe); hhPhe = N[C@@H](CCCc1ccccc1)C(=O)O; aThr = C[C@H](O)[C@H](N)C(=O)O; CNB = not defined here; Aib = CC(C)(N)C(=O)O; Moc = COC(=O)*
What follows are binders tested against human glucagon receptor (human, UniProt P47871 26-477) (assay: cell-based or functional assay).

Binder	inhibition of cAMP production, 1 nM [pmol/ml/µg prt]	inhibition of cAMP production, 10 nM [pmol/ml/µg prt]	inhibition of cAMP production, 100 nM [pmol/ml/µg prt]	inhibition of cAMP production, 1 µM [pmol/ml/µg prt]	inhibition of cAMP production, 10 µM [pmol/ml/µg prt]
H[Aib][Leu(5,5,5,5',5',5'-F6)]G[aThr][αMePhe(2-F)][aThr]SD[Bip(2'-Et-4'-OMe)][2F‑APPA] (also: thioamide (C═S) bond Z10-Z11) [Seq. ID. No. 218: H-Aib-(Hfl)-G-T(allo)-(α-Me-2F-Phe)-T(allo)-SD-Bip(OMe)-(C═S)-(2F-APPA)]	9	6	5	3	0
H[Aib][Leu(5,5,5,5',5',5'-F6)]GT[αMePhe(2-F)][aThr]SD[Bip(2'-Et-4'-OMe)][hhPhe] [Seq. ID. No. 225: H-Aib-(Hfl)-GT-(α-Me-2F-Phe)-T(allo)-SD-Bip(OMe)-(APPA)]	5	2	0	0	0
Ac-H[Aib][Leu(5,5,5,5',5',5'-F6)]GT[αMePhe(2-F)]TSD[Bip(2'-Et-4'-OMe)][2F‑APPA] [Seq. ID. No. 212: CH3CO-H-Aib-(Hfl)-GT-(α-Me-2F-Phe)-TSD-Bip(OMe)-(2F-APPA)]	10	8	6	4	1
Moc-H[Aib][CNB]GT[αMePhe(2-F)]TSD[Bip(2'-Et-4'-OMe)][2F‑APPA] (reading uncertain) [Seq. ID. No. 208: CH3OCO-H-Aib-(CNB)-GT-(α-Me-2F-Phe)-TSD-Bip(OMe)-(2F-APPA)]	5	3	1	0	0

What follows are binders tested against human GLP-1 receptor (human, UniProt P43220 24-463) (assay: cell-based or functional assay).
human GLP-1 receptor, sequence (P43220 24-463): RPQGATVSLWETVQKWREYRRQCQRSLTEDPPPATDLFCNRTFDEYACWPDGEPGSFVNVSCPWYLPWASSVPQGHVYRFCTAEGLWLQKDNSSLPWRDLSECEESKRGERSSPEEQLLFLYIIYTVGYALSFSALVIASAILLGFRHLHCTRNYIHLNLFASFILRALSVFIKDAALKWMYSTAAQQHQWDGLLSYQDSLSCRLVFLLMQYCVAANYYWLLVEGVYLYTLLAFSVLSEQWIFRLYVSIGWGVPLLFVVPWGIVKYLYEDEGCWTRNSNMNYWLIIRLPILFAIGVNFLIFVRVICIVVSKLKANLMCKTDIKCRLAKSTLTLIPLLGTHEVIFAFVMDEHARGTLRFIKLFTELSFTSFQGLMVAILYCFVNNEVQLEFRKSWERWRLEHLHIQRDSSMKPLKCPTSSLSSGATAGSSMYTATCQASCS

Binder	cAMP release, % activity, 1 nM [%]	cAMP release, % activity, 10 nM [%]	cAMP release, % activity, 100 nM [%]	cAMP release, % activity, 1 µM [%]	cAMP release, % activity, 10 µM [%]
H[Aib][CNB]G[aThr][αMePhe(2-F)][aThr]SD[Bip(2'-Et-4'-OMe)][hhPhe] (reading uncertain; also: reduced (CH2) bond between 10 and 11) [Seq. ID. No. 190: H-Aib-(CNB)-G-T(allo)-(α-Me-2F-Phe)-T(allo)-SD-Bip(OMe)-(CH2)-(APPA)]	41	82	87	95	98
H[Aib][CNB]GTFTSD[Bip(2'-Et-4'-OMe)][2F,4CF3‑APPA] (reading uncertain) [Seq. ID. No. 81: H-Aib-(CNB)-GTFTSD-Bip(OMe)-(2F, 4CF3-APPA)]	69	98	99	99	99
H[Aib][CNB]GTFTSD[Bip(2'-Et-4'-OMe)][2Cl‑APPA] (reading uncertain) [Seq. ID. No. 82: H-Aib-(CNB)-GTFTSD-Bip(OMe)-(2Cl-APPA)]	78	99	99	99	99
H[Aib][CNB]G[aThr][αMePhe(2-F)][aThr]SD[Bip(2'-Et-4'-OMe)][2F‑APPA] (reading uncertain; also: thioamide bonds between residues 9-10 and 10-11) [Seq. ID. No. 180: H-Aib-(CNB)-G-T(allo)-(α-Me-2F-Phe)-T(allo)-SD-(C═S)-Bip(OMe)-(C═S)-(2F-APPA)]	40	81	89	96	99
Ac-H[Aib]QG[aThr][αMePhe(2-F)][aThr]SD[Bip(2'-Et-4'-OMe)][hhPhe] (also: reduced (CH2) bond between 10 and 11) [Seq. ID. No. 185: CH3CO-H-Aib-QG-T(allo)-(α-Me-2F-Phe)-T(allo)-SD-Bip(OMe)-(CH2)-(APPA)]	46	85	90	99	99
Moc-H[Aib]QGT[αMePhe(2-F)]TSD[Bip(2'-Et-4'-OMe)][2F‑APPA] (also: reduced (CH2) bonds between 9-10 and 10-11) [Seq. ID. No. 196: CH3OCO-H-Aib-QGT-(α-Me-2F-Phe)-TSD-(CH2)-BiP(OMe)-(CH2)-(2F-APPA)]	39	81	89	96	99
Moc-H[Aib]QG[aThr][αMePhe(2-F)][aThr]SD[NMeBip(OMe)][NMe2F‑APPA] [Seq. ID. No. 140: CH3OCO-H-Aib-QG-T(allo)-(α-Me-2F-Phe)-T(allo)-SD-((NMe)Bip(OMe))-((NMe)(2F-APPA))]	51	86	91	99	99
Ac-H[Aib]QG[aThr][αMePhe(2-F)][aThr]SD[Bip(2'-Et-4'-OMe)][hhPhe] [Seq. ID. No. 101: CH3CO-H-Aib-QG-T(allo)-(α-Me-2F-Phe)-T(allo)-SD-Bip(OMe)-(APPA)]	41	82	87	95	98
HAQGTFTSD[Bip(2'-Et-4'-OMe)][AMCB] [Seq. ID. No. 16: HAQGTFTSD-Bip(OMe)-(AMCB)]	99	99	99	99	99
H[Aib][CNB]GTFTSD[Bip(2'-Et-4'-OMe)][2CF3,4F‑APPA] (reading uncertain) [Seq. ID. No. 80: H-Aib-(CNB)-GTFTSD-Bip(OMe)-(2CF3, 4F-APPA)]	66	97	99	99	99
Moc-H[Aib]QG[aThr][αMePhe(2-F)][aThr]SD[Bip(2'-Et-4'-OMe)][hhPhe] (also: reduced (CH2) bonds between 9-10 and 10-11) [Seq. ID. No. 198: CH3OCO-H-Aib-QG-T(allo)-(α-Me-2F-Phe)-T(allo)-SD-(CH2)-Bip(OMe)-(CH2)-(APPA)]	82	87	92	99	99

Source: US20120021972A1 (CADILA HEALTHCARE, published 2012)
